Assay results reported in IntAct's records for PubMed 16531226.

B1: Serine/threonine-protein phosphatase 5 (Homo sapiens), P53041 (parent)
chain: MAMAEGERTECAEPPRDEPPADGALKRAEELKTQANDYFKAKDYENAIKFYSQAIELNPSNAIYYGNRSLAYLRTECYGYALGDATRAIELDKKYIKGYYRRAASNMALGKFRAALRDYETVVKVKPHDKDAKMKYQECNKIVKQKAFERAIAGDEHKRSVVDSLDIESMTIEDEYSGPKLEDGKVTISFMKELMQWYKDQKKLHRKCAYQILVQVKEVLSKLSTLVETTLKETEKITVCGDTHGQFYDLLNIFELNGLPSETNPYIFNGDFVDRGSFSVEVILTLFGFKLLYPDHFHLLRGNHETDNMNQIYGFEGEVKAKYTAQMYELFSEVFEWLPLAQCINGKVLIMHGGLFSEDGVTLDDIRKIERNRQPPDSGPMCDLLWSDPQPQNGRSISKRGVSCQFGPDVTKAFLEENNLDYIIRSHEVKAEGYEVAHGGRCVTVFSAPNYCDQMGNKASYIHLQGSDLRPQFHQFTAVPHPNVKPMAYANTLLQLGMM

Variants of: B1
Conditions: with hs90b_human HSP90AB1, P08238
hs90b_human HSP90AB1, P08238, sequence (P08238 whole entry): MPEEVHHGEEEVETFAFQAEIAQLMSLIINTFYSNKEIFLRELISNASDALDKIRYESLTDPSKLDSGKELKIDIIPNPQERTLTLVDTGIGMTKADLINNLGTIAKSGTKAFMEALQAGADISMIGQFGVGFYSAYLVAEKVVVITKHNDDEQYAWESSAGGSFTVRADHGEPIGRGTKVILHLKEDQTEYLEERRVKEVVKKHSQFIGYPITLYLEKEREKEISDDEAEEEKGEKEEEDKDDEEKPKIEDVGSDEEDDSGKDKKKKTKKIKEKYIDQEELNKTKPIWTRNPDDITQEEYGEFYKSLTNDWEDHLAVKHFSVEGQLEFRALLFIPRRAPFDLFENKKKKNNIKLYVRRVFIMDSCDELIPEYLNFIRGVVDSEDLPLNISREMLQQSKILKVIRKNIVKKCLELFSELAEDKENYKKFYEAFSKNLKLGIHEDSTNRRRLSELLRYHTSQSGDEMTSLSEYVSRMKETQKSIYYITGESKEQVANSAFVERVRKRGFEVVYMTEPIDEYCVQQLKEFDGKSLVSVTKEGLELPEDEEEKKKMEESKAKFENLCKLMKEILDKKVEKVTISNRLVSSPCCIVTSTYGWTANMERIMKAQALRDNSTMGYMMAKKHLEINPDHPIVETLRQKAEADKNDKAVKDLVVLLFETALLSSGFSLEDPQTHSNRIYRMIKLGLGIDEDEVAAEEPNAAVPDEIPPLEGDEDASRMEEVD

Row | effect of a mutation on the interaction | Variant
1 | increasing interaction | MAMAEGERTECAEPPRDEPPADGALKRAEELKTQANDYFKAKDYENAIKFYSQAIELNPSNAIYYGNRSLAYLRTECYGYALNDATRAIELDKKYIKGYYRRAASNMALGKFRAALRDYETVVKVKPHDKDAKMKYQECNKIVKQKAFERAIAGDEHKRSVVDSLDIESMTIEDEYSGPKLEDGKVTISFMKELMQWYKDQKKLHRKCAYQILVQVKEVLSKLSTLVETTLKETEKITVCGDTHGQFYDLLNIFELNGLPSETNPYIFNGDFVDRGSFSVEVILTLFGFKLLYPDHFHLLRGNHETDNMNQIYGFEGEVKAKYTAQMYELFSEVFEWLPLAQCINGKVLIMHGGLFSEDGVTLDDIRKIERNRQPPDSGPMCDLLWSDPQPQNGRSISKRGVSCQFGPDVTKAFLEENNLDYIIRSHEVKAEGYEVAHGGRCVTVFSAPNYCDQMGNKASYIHLQGSDLRPQFHQFTAVPHPNVKPMAYANTLLQLGMM [G83N]
